In paper PMC9482650, “Quantitative fragmentomics allow affinity mapping of interactomes” (Nature Communications, 2022):

Experiments:
Experiment in all cases: holdup assay
Parameters in all cases: key: below the threshold = too weak to quantify, mostly under pKd 3.1 to 4
APBA2_1, Q99767 = molecular target: T1, APBA2_1, Q99767
T1 sequence (Q99767 563-664, limits assumed, looked up): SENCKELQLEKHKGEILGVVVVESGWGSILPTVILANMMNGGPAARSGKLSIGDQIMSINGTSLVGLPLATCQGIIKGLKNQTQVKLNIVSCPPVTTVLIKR

APBA3_1, O96018 = molecular target: T2, APBA3_1, O96018
T2 sequence (O96018 389-490, limits assumed, looked up): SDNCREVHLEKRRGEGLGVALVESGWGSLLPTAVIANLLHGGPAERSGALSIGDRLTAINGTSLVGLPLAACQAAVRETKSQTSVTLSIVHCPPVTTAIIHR

ARHGEF11, O15085 = molecular target: T3, ARHGEF11, O15085
T3 sequence (O15085 42-136, limits assumed, looked up): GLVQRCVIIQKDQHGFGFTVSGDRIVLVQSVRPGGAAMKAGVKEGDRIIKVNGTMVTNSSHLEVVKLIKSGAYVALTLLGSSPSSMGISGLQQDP

CARD11, Q9BXL7 = molecular target: T4, CARD11, Q9BXL7
T4 sequence (Q9BXL7 662-765, limits assumed, looked up): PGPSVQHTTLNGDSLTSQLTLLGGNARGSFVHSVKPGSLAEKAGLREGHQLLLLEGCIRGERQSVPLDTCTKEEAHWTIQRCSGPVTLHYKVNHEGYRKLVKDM

CASK, O14936 = molecular target: CASK, O14936
Sequence of CASK, O14936 (O14936 487-570): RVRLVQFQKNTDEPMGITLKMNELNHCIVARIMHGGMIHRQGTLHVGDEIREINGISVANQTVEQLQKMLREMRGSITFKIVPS

FRMPD1, Q5SYB0 = molecular target: T5, FRMPD1, Q5SYB0
T5 sequence (Q5SYB0 52-145, limits assumed, looked up): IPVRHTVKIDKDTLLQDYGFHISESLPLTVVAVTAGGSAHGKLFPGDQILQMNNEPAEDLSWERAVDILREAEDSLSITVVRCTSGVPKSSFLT

FRMPD2_1, Q68DX3 = molecular target: FRMPD2_1, Q68DX3
Sequence of FRMPD2_1, Q68DX3 (Q68DX3 770-861): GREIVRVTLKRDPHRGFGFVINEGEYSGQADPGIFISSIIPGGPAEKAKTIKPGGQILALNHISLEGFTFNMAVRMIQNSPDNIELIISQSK

GRIP2_4, Q9C0E4 = molecular target: GRIP2_4, Q9C0E4
Sequence of GRIP2_4, Q9C0E4 (Q9C0E4 446-548): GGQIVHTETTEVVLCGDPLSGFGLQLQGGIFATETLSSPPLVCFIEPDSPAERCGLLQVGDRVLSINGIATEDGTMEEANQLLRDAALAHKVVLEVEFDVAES

GRIP2_7, Q9C0E4 = molecular target: GRIP2_7, Q9C0E4
Sequence of GRIP2_7, Q9C0E4 (Q9C0E4 934-1023): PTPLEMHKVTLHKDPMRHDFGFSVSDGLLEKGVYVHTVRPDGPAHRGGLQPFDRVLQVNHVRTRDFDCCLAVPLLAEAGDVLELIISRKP

HTRA3, P83110 = molecular target: T6, HTRA3, P83110
T6 sequence (P83110 354-453, limits assumed, looked up): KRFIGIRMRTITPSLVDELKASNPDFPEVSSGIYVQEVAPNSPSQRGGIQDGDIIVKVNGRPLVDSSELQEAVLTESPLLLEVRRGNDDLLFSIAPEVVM

MAGI1_1, Q96QZ7 = molecular target: MAGI1_1, Q96QZ7
Sequence of MAGI1_1, Q96QZ7 (Q96QZ7 1-106): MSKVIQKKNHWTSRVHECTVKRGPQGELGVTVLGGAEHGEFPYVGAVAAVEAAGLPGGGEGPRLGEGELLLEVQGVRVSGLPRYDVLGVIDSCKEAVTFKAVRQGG

MAGI2_6, Q86UL8 = molecular target: MAGI2_6, Q86UL8
Sequence of MAGI2_6, Q86UL8 (Q86UL8 1141-1229): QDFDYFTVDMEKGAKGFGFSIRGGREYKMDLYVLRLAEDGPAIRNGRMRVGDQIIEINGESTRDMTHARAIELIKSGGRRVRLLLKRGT

MPP6, Q9NZW5 = molecular target: T7, MPP6, Q9NZW5
T7 sequence (Q9NZW5 125-219, limits assumed, looked up): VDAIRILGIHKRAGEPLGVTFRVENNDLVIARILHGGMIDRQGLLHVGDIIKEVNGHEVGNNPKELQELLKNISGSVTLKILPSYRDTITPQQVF

MPP7, Q5T2T1 = molecular target: T8, MPP7, Q5T2T1
T8 sequence (Q5T2T1 134-230, limits assumed, looked up): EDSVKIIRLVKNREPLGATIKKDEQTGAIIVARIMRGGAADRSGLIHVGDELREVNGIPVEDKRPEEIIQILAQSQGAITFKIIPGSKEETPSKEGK

NHERF3_4, Q5T2W1 = molecular target: T9, NHERF3_4, Q5T2W1
T9 sequence (Q5T2W1 373-468, limits assumed, looked up): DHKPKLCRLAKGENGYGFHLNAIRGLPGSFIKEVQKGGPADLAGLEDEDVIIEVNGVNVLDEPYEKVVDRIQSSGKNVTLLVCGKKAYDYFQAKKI

PDZD7_3, Q9H5P4 = molecular target: T10, PDZD7_3, Q9H5P4
T10 sequence (Q9H5P4 857-944, limits assumed, looked up): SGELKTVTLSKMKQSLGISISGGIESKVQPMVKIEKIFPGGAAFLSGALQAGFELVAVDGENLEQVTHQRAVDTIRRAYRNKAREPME

RHPN1, Q8TCX5 = molecular target: T11, RHPN1, Q8TCX5
T11 sequence (Q8TCX5 508-602, limits assumed, looked up): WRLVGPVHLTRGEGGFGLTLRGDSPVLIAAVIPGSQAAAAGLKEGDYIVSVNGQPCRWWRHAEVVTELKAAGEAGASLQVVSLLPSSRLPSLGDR

SNTA1, Q13424 = molecular target: T12, SNTA1, Q13424
T12 sequence (Q13424 82-180, limits assumed, looked up): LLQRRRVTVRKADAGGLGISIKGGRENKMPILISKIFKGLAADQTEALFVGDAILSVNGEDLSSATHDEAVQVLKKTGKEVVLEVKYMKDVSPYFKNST

SNTG1, Q9NSN8 = molecular target: T13, SNTG1, Q9NSN8
T13 sequence (Q9NSN8 52-150, limits assumed, looked up): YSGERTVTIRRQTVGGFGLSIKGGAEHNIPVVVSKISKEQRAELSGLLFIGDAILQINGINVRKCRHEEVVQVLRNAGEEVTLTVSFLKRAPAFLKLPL

TJP1_2, Q07157 = molecular target: TJP1_2, Q07157
Sequence of TJP1_2, Q07157 (Q07157 181-274): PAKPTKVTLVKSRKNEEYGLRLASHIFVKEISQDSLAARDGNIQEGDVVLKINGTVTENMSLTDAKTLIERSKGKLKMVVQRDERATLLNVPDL

TJP3_3, O95049 = molecular target: T14, TJP3_3, O95049
T14 sequence (O95049 375-456, limits assumed, looked up): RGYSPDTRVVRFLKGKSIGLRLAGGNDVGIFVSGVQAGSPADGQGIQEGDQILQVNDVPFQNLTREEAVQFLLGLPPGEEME

TX1BP3, O14907 = molecular target: T15, TX1BP3, O14907
T15 sequence (O14907 10-122, limits assumed, looked up): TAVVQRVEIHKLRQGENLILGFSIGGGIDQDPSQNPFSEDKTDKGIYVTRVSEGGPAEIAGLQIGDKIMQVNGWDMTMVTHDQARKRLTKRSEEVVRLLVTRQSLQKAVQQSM

[1] = plain residues with an end cap or a label only (N-terminal biotin on a linker: ado-ado)
[2] = plain residues with an end cap or a label only (N-terminal biotin on a linker: ahx)

What does the source list for GEDRSPPTAL [MKNK1, Q9BUB5]?
pKd (APBA2_1, Q99767; [1]): below the threshold; pKd (APBA3_1, O96018; [1]): below the threshold; pKd (ARHGEF11, O15085; [1]): 4.01; pKd (CARD11, Q9BXL7; [1]): below the threshold; pKd (CASK, O14936; [1]): below the threshold; pKd (FRMPD1, Q5SYB0; [1]): below the threshold; pKd (FRMPD2_1, Q68DX3; [1]): below the threshold; pKd (GRIP2_4, Q9C0E4; [1]): below the threshold; pKd (GRIP2_7, Q9C0E4; [1]): below the threshold; pKd (HTRA3, P83110; [1]): below the threshold; pKd (MAGI1_1, Q96QZ7; [1]): below the threshold; pKd (MAGI2_6, Q86UL8; [1]): 3.57; pKd (MPP6, Q9NZW5; [1]): 3.59; pKd (MPP7, Q5T2T1; [1]): below the threshold; pKd (NHERF3_4, Q5T2W1; [1]): 3.7; pKd (PDZD7_3, Q9H5P4; [1]): 3.8; pKd (RHPN1, Q8TCX5; [1]): below the threshold; pKd (SNTA1, Q13424; [1]): below the threshold; pKd (SNTG1, Q9NSN8; [1]): below the threshold; pKd (TJP1_2, Q07157; [1]): below the threshold; pKd (TJP3_3, O95049; [1]): below the threshold; pKd (TX1BP3, O14907; [1]): below the threshold

LPAVCYDIDI [PTTG2, Q9NZH5] was tested. Which pKd (APBA2_1, Q99767; [1]) did it give?
The pKd was “below the threshold”.

And the pKd (APBA3_1, O96018; [1])?
The pKd was “below the threshold”.

And the pKd (ARHGEF11, O15085; [1])?
The pKd was “below the threshold”.

What about the pKd (CARD11, Q9BXL7; [1]) of the same binder?
The pKd was “below the threshold”.

What about the pKd (CASK, O14936; [1]) of the same binder?
Its pKd is “below the threshold”.

And the pKd (FRMPD1, Q5SYB0; [1])?
Its pKd is “below the threshold”.

And the pKd (FRMPD2_1, Q68DX3; [1])?
Its pKd is “below the threshold”.

And the pKd (GRIP2_4, Q9C0E4; [1])?
The pKd was “below the threshold”.

What about the pKd (GRIP2_7, Q9C0E4; [1]) of the same binder?
The pKd was “below the threshold”.

And the pKd (HTRA3, P83110; [1])?
The pKd was 3.6.

What about the pKd (MAGI1_1, Q96QZ7; [1]) of the same binder?
Its pKd is “below the threshold”.

What about the pKd (MAGI2_6, Q86UL8; [1]) of the same binder?
The pKd was “below the threshold”.

And the pKd (MPP6, Q9NZW5; [1])?
Its pKd is 3.54.

And the pKd (MPP7, Q5T2T1; [1])?
Its pKd is 4.27.

And the pKd (NHERF3_4, Q5T2W1; [1])?
The pKd was “below the threshold”.

What about the pKd (PDZD7_3, Q9H5P4; [1]) of the same binder?
The pKd was “below the threshold”.

And the pKd (RHPN1, Q8TCX5; [1])?
The pKd was “below the threshold”.

And the pKd (SNTA1, Q13424; [1])?
The pKd was “below the threshold”.

And the pKd (SNTG1, Q9NSN8; [1])?
Its pKd is 3.64.

And the pKd (TJP1_2, Q07157; [1])?
Its pKd is 4.32.

And the pKd (TJP3_3, O95049; [1])?
The pKd was “below the threshold”.

And the pKd (TX1BP3, O14907; [1])?
The pKd was 4.09.

What does the source list for QNTDDVQTSF [ACE2, Q9BYF1]?
pKd (APBA2_1, Q99767; [2]): below the threshold; pKd (APBA3_1, O96018; [2]): below the threshold; pKd (ARHGEF11, O15085; [2]): below the threshold; pKd (CARD11, Q9BXL7; [2]): below the threshold; pKd (CASK, O14936; [2]): below the threshold; pKd (FRMPD1, Q5SYB0; [2]): below the threshold; pKd (FRMPD2_1, Q68DX3; [2]): below the threshold; pKd (GRIP2_4, Q9C0E4; [2]): below the threshold; pKd (GRIP2_7, Q9C0E4; [2]): below the threshold; pKd (HTRA3, P83110; [2]): below the threshold; pKd (MAGI1_1, Q96QZ7; [2]): below the threshold; pKd (MAGI2_6, Q86UL8; [2]): below the threshold; pKd (MPP6, Q9NZW5; [2]): below the threshold; pKd (MPP7, Q5T2T1; [2]): below the threshold; pKd (NHERF3_4, Q5T2W1; [2]): 3.57; pKd (PDZD7_3, Q9H5P4; [2]): 3.51; pKd (RHPN1, Q8TCX5; [2]): 4.38; pKd (SNTA1, Q13424; [2]): below the threshold; pKd (SNTG1, Q9NSN8; [2]): below the threshold; pKd (TJP1_2, Q07157; [2]): below the threshold; pKd (TJP3_3, O95049; [2]): below the threshold; pKd (TX1BP3, O14907; [2]): below the threshold

What does the source list for KKMLQRRTLL [OR8G1, Q15617]?
pKd (APBA2_1, Q99767; [1]): below the threshold; pKd (APBA3_1, O96018; [1]): below the threshold; pKd (ARHGEF11, O15085; [1]): 3.89; pKd (CARD11, Q9BXL7; [1]): below the threshold; pKd (CASK, O14936; [1]): below the threshold; pKd (FRMPD1, Q5SYB0; [1]): below the threshold; pKd (FRMPD2_1, Q68DX3; [1]): below the threshold; pKd (GRIP2_4, Q9C0E4; [1]): below the threshold; pKd (GRIP2_7, Q9C0E4; [1]): below the threshold; pKd (HTRA3, P83110; [1]): below the threshold; pKd (MAGI1_1, Q96QZ7; [1]): below the threshold; pKd (MAGI2_6, Q86UL8; [1]): below the threshold; pKd (MPP6, Q9NZW5; [1]): below the threshold; pKd (MPP7, Q5T2T1; [1]): below the threshold; pKd (NHERF3_4, Q5T2W1; [1]): 4.64; pKd (PDZD7_3, Q9H5P4; [1]): 4.61; pKd (RHPN1, Q8TCX5; [1]): below the threshold; pKd (SNTA1, Q13424; [1]): 3.58; pKd (SNTG1, Q9NSN8; [1]): below the threshold; pKd (TJP1_2, Q07157; [1]): below the threshold; pKd (TJP3_3, O95049; [1]): below the threshold; pKd (TX1BP3, O14907; [1]): 3.76
